“And” between values parts separate entries of the source, which are not always exact repeats. Equal values may be shown once.
Key:
native MS = molecular target: the molecule itself; assay: native MS
[1] = molecular target: Xenopus laevis histone H2B (28–126) (Xenopus laevis, UniProt P02281 28-126); assay: crystal structure

Row | binding result [1] | Binder | stoichiometry N (native MS) | binding result (native MS)
1 | binds | Saccharomyces cerevisiae Nap1 core domain (residues 75–365) (domain or fragment) GSLVGQDSGYVGGLPKNVKEKLLSLKTLQSELFEVEKEFQVEMFELENKFLQKYKPIWEQRSRIISGQEQPKPEQIAKGQEIVESLNETELLVDEEEKAQNDSEEEQVKGIPSFWLTALENLPIVCDTITDRDAEVLEYLQDIGLEYLTDGRPGFKLLFRFDSSANPFFTNDILCKTYFYQKELGYSGDFIYDHAEGCEISWKDNAHNVTVDLEMRKQRNKTTKQVRTIEKITPIESFFNFFDPPKIQNEDQDEELEEDLEERLALDYSIGEQLKDKLIPRAVDWFTGAAL | 2 and 4 and 6 | 
2 |  | Saccharomyces cerevisiae Nap1 full-length (residues 1–417) (natural protein) MSDPIRTKPKSSMQIDNAPTPHNTPASVLNPSYLKNGNPVRAQAQEQDDKIGTINEEDILANQPLLLQSIQDRLGSLVGQDSGYVGGLPKNVKEKLLSLKTLQSELFEVEKEFQVEMFELENKFLQKYKPIWEQRSRIISGQEQPKPEQIAKGQEIVESLNETELLVDEEEKAQNDSEEEQVKGIPSFWLTALENLPIVCDTITDRDAEVLEYLQDIGLEYLTDGRPGFKLLFRFDSSANPFFTNDILCKTYFYQKELGYSGDFIYDHAEGCEISWKDNAHNVTVDLEMRKQRNKTTKQVRTIEKITPIESFFNFFDPPKIQNEDQDEELEEDLEERLALDYSIGEQLKDKLIPRAVDWFTGAALEFEFEEDEEEADEDEDEEEDDDHGLEDDDGESAEEQDDFAGRPEQAPECKQS | 2 and 4 and 6 | 
3 |  | yNap1cΔ (core 75–365 with in-frame deletion of the β5–β6 region, Δ284–308) (domain or fragment) GSLVGQDSGYVGGLPKNVKEKLLSLKTLQSELFEVEKEFQVEMFELENKFLQKYKPIWEQRSRIISGQEQPKPEQIAKGQEIVESLNETELLVDEEEKAQNDSEEEQVKGIPSFWLTALENLPIVCDTITDRDAEVLEYLQDIGLEYLTDGRPGFKLLFRFDSSANPFFTNDILCKTYFYQKELGYSGDFIYDHAEGCEISWKDNAHNVIESFFNFFDPPKIQNEDQDEELEEDLEERLALDYSIGEQLKDKLIPRAVDWFTGAAL |  | binds
4 |  | yNap1cΔ_G225D (domain or fragment) GSLVGQDSGYVGGLPKNVKEKLLSLKTLQSELFEVEKEFQVEMFELENKFLQKYKPIWEQRSRIISGQEQPKPEQIAKGQEIVESLNETELLVDEEEKAQNDSEEEQVKGIPSFWLTALENLPIVCDTITDRDAEVLEYLQDIGLEYLTDDRPGFKLLFRFDSSANPFFTNDILCKTYFYQKELGYSGDFIYDHAEGCEISWKDNAHNVIESFFNFFDPPKIQNEDQDEELEEDLEERLALDYSIGEQLKDKLIPRAVDWFTGAAL | 2 | 

Source: paper PMC4931181 (The EMBO Journal, 2016)
